From patent publication US20090324601A1 (published 2009)

Assays:
[1] = biological target: PDGFR-alpha on MG-63 cells (human, UniProt P16234 24-1089); assay: cell-based or functional assay; also: test concentration or dose not given here
c-kit = c-kit (UniProt P10721 26-520, limits assumed); assay: method not described
FLT3 = FLT3 (UniProt P36888 27-541, limits assumed); assay: method not described
CSF-1R = CSF-1R (UniProt P07333 20-512, limits assumed); assay: method not described
PDGFR-beta = PDGFR-beta (UniProt P09619 33-530, limits assumed); assay: method not described
Sequence of PDGFR-beta (P09619 33-530 limits assumed): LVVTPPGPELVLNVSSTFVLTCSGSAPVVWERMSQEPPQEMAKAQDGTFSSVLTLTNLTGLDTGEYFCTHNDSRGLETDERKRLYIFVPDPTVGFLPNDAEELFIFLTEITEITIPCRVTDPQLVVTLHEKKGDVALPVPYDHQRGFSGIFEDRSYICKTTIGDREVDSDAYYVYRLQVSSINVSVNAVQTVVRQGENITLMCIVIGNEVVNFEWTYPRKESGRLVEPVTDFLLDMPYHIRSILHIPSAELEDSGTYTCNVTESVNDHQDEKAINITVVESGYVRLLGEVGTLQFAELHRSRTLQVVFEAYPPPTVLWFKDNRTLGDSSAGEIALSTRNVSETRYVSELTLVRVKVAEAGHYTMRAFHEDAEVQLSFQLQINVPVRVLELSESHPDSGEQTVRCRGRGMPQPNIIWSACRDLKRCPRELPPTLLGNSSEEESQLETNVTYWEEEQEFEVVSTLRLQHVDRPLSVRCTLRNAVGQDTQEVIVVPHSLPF

Sequence of PDGFR-alpha on MG-63 cells (P16234 24-1089): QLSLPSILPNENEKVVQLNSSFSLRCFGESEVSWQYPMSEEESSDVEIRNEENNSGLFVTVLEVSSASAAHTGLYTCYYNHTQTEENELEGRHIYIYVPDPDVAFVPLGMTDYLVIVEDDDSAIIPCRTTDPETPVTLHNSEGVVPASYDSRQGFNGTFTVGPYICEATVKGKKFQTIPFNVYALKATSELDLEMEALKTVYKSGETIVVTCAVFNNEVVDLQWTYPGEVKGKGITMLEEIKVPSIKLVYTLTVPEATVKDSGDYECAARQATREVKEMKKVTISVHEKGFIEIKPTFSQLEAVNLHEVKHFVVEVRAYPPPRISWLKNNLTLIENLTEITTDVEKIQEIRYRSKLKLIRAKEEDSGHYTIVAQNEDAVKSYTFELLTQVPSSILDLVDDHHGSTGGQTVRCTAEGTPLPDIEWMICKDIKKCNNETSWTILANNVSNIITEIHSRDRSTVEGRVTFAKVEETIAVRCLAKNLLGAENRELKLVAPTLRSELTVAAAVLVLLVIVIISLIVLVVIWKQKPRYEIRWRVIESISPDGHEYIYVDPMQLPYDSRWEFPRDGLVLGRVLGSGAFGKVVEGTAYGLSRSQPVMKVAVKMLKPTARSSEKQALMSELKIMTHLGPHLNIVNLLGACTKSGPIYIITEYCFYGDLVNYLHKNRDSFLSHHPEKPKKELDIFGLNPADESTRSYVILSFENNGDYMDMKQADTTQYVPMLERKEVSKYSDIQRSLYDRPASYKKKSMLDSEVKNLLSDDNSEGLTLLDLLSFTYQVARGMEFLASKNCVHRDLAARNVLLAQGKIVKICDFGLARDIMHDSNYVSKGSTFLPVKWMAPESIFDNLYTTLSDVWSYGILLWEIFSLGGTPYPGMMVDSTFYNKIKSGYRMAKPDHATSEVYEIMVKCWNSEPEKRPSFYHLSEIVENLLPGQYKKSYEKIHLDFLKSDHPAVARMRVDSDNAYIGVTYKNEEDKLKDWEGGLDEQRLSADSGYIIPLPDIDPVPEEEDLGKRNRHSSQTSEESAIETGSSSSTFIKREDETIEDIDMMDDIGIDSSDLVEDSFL
Sequence of CSF-1R (P07333 20-512 limits assumed): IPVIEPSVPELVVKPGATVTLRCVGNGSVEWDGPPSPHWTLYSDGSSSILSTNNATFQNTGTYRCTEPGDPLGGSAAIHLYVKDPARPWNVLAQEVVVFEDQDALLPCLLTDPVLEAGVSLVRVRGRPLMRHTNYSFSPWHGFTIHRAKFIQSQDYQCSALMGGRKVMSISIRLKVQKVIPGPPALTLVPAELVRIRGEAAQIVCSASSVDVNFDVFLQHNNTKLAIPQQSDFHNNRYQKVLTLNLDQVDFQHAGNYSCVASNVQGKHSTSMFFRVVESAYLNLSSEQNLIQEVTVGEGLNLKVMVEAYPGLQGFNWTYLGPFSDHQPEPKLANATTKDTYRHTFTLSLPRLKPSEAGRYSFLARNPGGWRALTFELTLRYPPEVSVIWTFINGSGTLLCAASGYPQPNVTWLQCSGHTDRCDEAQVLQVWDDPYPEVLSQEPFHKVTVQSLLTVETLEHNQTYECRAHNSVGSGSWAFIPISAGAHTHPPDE
Sequence of c-kit (P10721 26-520 limits assumed): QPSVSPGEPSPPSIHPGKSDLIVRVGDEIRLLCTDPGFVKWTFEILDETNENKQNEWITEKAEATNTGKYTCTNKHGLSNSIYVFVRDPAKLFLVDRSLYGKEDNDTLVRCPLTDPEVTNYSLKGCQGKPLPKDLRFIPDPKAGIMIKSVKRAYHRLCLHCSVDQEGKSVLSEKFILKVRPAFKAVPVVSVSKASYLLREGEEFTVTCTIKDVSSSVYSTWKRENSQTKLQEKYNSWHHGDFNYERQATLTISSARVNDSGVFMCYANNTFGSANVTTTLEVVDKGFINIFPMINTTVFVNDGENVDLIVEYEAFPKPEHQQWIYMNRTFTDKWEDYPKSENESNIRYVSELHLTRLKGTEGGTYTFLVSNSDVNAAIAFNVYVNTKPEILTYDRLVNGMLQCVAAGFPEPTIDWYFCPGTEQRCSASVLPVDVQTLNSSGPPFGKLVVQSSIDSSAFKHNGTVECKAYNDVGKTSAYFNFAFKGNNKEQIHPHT

Row | Average pTyr Inhibition [1] [%] | binding result (c-kit) | binding result (FLT3) | binding result (CSF-1R) | binding result (PDGFR-beta) | Binder
1 | > 100 | – | – | – | – | 2.1954.2 (antibody, V domains shown) VH: QVQLVESGGGVVQPGRSLRLSCAASGFSFSIYGMHWVRQAPGKGLEWVAVIWFDGSNKYYADSVKGRFTISRDNSKNTLYLQMNSLRAEDTALYYCARDKASYYGSGMDYWGQGTLVTVSS VL: EIVLTQSPGTLSLSPGERATLSCRASQSVSSTYLAWYQHRPGQAPRLLISGASRRATGIPDRFSGSGSGTDFTLTISRLEPEDFAVYYCQHYGSSFTWTFGQGTKVEIK
2 | > 100 | – | – | – | – | 3.87.1.1 (antibody, V domains shown) VH: QVQLVESGGGVVQPGRSLRLSCAASGFTFSSYGMHWVRQAPGKGLEWVAVIWYDRSNKYYADSVKGRFTISRDNSKNTLYLQMNSLRAEDTAVYYCAGGRSRGAFDYWGQGTLVTVSS VL: DIQMTQSPSSVSASVGDRVTITCRASQGISSWLAWYQQKPGKAPKLLIFAASSLQSGVPSRFSGSGSGTDFTLTISSLQPEDFATYYCQRTNSFPRTFGQGTKVEIK
3 | > 100 | – | – | – | – | 3.818.4 (antibody, V domains shown) VH: EVQLVESGGGLVQPGGSLRLSCAASGFTFSSYSMNWVRQAPGKGLEWVSYISGSSTTMYYADSVKGRFTISRDNAKNSLYLQMNSLRDEDTAVYYCARLRHFDWSYAFDIWGQGTMVTVSS VL: DIQMTQSPSSVSTSVGDRVTITCRASQGISSWLAWYQQRPGKAPKLLIYAASSLQSGVPSRFSGSGSGTDFTLTISSLQPEDFATYFCQQATSFPFTFGPGTKVGIK
4 | 95 | – | – | – | – | 3.472.1.1 (antibody, V domains shown) VH: QVQLVESGGGVVQPGRSLRLSCAASGFTFSSYGMHWVRQAPGKGLEWVAVIWYDRSNKYYVDSVKGRFTISRDNSKNTLYLQMNSLRAEDTAVYYCAGGRSRGAFDYWGQGTLVTVSS VL: DIQMTQSPSSVSASVGDRVTITCRASQDISSWLAWYQQKPGKAPKLLIFAASSLQSGVPSRFSGSGSGTDFTLTISSLQPEDFATYYCQRTSSFPRTFGQGTKVEIK
5 | – | no binding | no binding | no binding | no binding | 3.87.1.1 (antibody, V domains shown, Variable regions only) VH: QVQLVESGGGVVQPGRSLRLSCAASGFTFSSYGMHWVRQAPGKGLEWVAVIWYDRSNKYYADSVKGRFTISRDNSKNTLYLQMNSLRAEDTAVYYCAGGRSRGAFDYWGQGTLVTVSS VL: DIQMTQSPSSVSASVGDRVTITCRASQGISSWLAWYQQKPGKAPKLLIFAASSLQSGVPSRFSGSGSGTDFTLTISSLQPEDFATYYCQRTNSFPRTFGQGTKVEIK
6 | 92 | – | – | – | – | 3.805.1.3 (antibody, V domains shown) VH: QVQLVESGGGVVQPGRSLRLSCAASGFTFSSYGMHWVRQAPGKGLEWVAVIWYDRSNKYYADSVKGRFTISRDNSKNTLYLQMNSLRAEDTAVYYCAGGRSRGAFDYWGQGTLVTVSS VL: DIQMTQSPSSVSASVGDRVTITCRASQGISSWLAWYQQKPGKAPNLLIYAASSLQSGVPSRFSGSGSGTDFTLTISSLQPEDFATYYCQRTNNFPRTFGQGTKVEIK
7 | 91 | – | – | – | – | 3.772.2 (antibody, V domains shown) VH: QVQLVESGGGVVQPGRSLRLSCAASGFTFSSYGMHWVRQAPGKGLEWVAVIWYDRSNKYYADSVKGRFTISRDNSKNTLYLQMNSLRAEDTAVYYCAGGRSRGAFDFWGQGTLVTVSS VL: DIQMTQSPSSVSASVGDRVTITCRASQDISSWLAWYQQKAGKAPKLLIYAASSLQSGVPSRFSGSGSGTDFTLTISSLQPEDFATYYCQRTNSFPRTFGQGTKVEIK
8 | > 100 | – | – | – | – | 3.457.3.1 (antibody, V domains shown) VH: QVQLVESGGGVVQPGRSLRLSCAASGFTFSSYGMHWVRQAPGKGLEWVAVIWYDRSNKYYADSVKGRFTISRDNSKNTLYLQMNSLRAEDTAVYYCAGGRSRGAFDFWGQGTLVTVSS VL: DIQMTQSPSSVSASVGDRVTITCRASQGISSWLAWYQQKAGKAPKLLIYSASSLQSGVPSRFSGSGSGTDFTLTISSLQPEDFATYYCQRTNSFPRTFGQGTKVEIK
9 | – | no binding | no binding | no binding | no binding | 3.805.1.3 (antibody, V domains shown, Variable regions only) VH: QVQLVESGGGVVQPGRSLRLSCAASGFTFSSYGMHWVRQAPGKGLEWVAVIWYDRSNKYYADSVKGRFTISRDNSKNTLYLQMNSLRAEDTAVYYCAGGRSRGAFDYWGQGTLVTVSS VL: DIQMTQSPSSVSASVGDRVTITCRASQGISSWLAWYQQKPGKAPNLLIYAASSLQSGVPSRFSGSGSGTDFTLTISSLQPEDFATYYCQRTNNFPRTFGQGTKVEIK
10 | – | no binding | no binding | no binding | no binding | 3.457.3.1 (antibody, V domains shown, Variable regions only) VH: QVQLVESGGGVVQPGRSLRLSCAASGFTFSSYGMHWVRQAPGKGLEWVAVIWYDRSNKYYADSVKGRFTISRDNSKNTLYLQMNSLRAEDTAVYYCAGGRSRGAFDFWGQGTLVTVSS VL: DIQMTQSPSSVSASVGDRVTITCRASQGISSWLAWYQQKAGKAPKLLIYSASSLQSGVPSRFSGSGSGTDFTLTISSLQPEDFATYYCQRTNSFPRTFGQGTKVEIK
11 | – | no binding | no binding | no binding | no binding | 3.772.2 (antibody, V domains shown, Variable regions only) VH: QVQLVESGGGVVQPGRSLRLSCAASGFTFSSYGMHWVRQAPGKGLEWVAVIWYDRSNKYYADSVKGRFTISRDNSKNTLYLQMNSLRAEDTAVYYCAGGRSRGAFDFWGQGTLVTVSS VL: DIQMTQSPSSVSASVGDRVTITCRASQDISSWLAWYQQKAGKAPKLLIYAASSLQSGVPSRFSGSGSGTDFTLTISSLQPEDFATYYCQRTNSFPRTFGQGTKVEIK
12 | – | no binding | no binding | no binding | no binding | 3.472.1.1 (antibody, V domains shown, Variable regions only) VH: QVQLVESGGGVVQPGRSLRLSCAASGFTFSSYGMHWVRQAPGKGLEWVAVIWYDRSNKYYVDSVKGRFTISRDNSKNTLYLQMNSLRAEDTAVYYCAGGRSRGAFDYWGQGTLVTVSS VL: DIQMTQSPSSVSASVGDRVTITCRASQDISSWLAWYQQKPGKAPKLLIFAASSLQSGVPSRFSGSGSGTDFTLTISSLQPEDFATYYCQRTSSFPRTFGQGTKVEIK
13 | – | no binding | no binding | no binding | no binding | 2.351.3 (antibody, V domains shown, Variable regions only) VH: QVQLVQSGAEVKKPGASVKVSCKASGYTFIGYYLHWVRQAPGQGLEWMGSINPNSGGTNYAQKFQGRVTMIRDTSINTAYMELSRLRSDDTAVYYCARDKRITMVRGVHYLYYGWDVWGQGTTVTVSS VL: DIQMTQSPSSLSASVGDRVTITCRASQVISNYLAWYQQKPGKVPQLLIYAASTLQSGVPSRFSGSGSGTDFTLTISSLQPEDVATYYCQNYKSAPWTFGQGTKVEIK
14 | – | no binding | no binding | no binding | no binding | 2.796.2 (antibody, V domains shown, Variable regions only) VH: QVQLVESGGGLVKPGGSLRLSCAASGFTFSDYYMNWIRQAPGKGLEWVSYISSSGSIIYYADSVKGRFTISRDNAKNSLYLQMNSLRAEDTAVYYCARDGHIAARGMDVWGQGTTVTVSS VL: DIQMTQSPSSLSASVGDRVTITCRASQSFSRYINWYQQKPGKAPKLLIYAASSLQGGVPSRFSGSGSGTDFTLTISSLQPEDFATYYCQQTYSNPPITFGQGTRLEIK
15 | – | no binding | no binding | no binding | no binding | 2.737.1.4 (antibody, V domains shown, Variable regions only) VH: QVQLVESGGGLVKPGGSLRLSCAASGFTFRDYYMSWIRQAPGKGLEWVAFISSSGSIIYYADSVKGRFTISRDNAKNSLFLQMNSLRAEDTAVYYCARDGHIAARGMDVWGQGTTVTVSS VL: DIQMTQSPSSLSASVGDRVTITCRASQSINKYINWYQQKPGKAPKLLIYAASSLQSGVPSRFNGSGSGTDFTFTINTLQPEDFATYYCQQTYSTPPITFGQGTRLEIK
16 | – | no binding | no binding | no binding | no binding | 2.2071.1.3 (antibody, V domains shown, Variable regions only) VH: QVQLVESGGGLVKPGGSLRLSCAASGFTFSDYYMNWIRQAPGKGLEWVSYISSSGSIIYYADSVKGRFTISRDNAKNSLYLQMNSLRAEDTAVYYCARDGRIVARGMDVWGQGTTVTVSS VL: DIQMTQSPSSLSASVGDRVTLTCRASHSINRYINWYQQKPGKAPKLLIYAASSLQSGVPSRFSGNGSGTDFTLTISSLQPEDFATYYCQQSYSTPPITFGQGTRLEIT
17 | – | no binding | no binding | no binding | no binding | 2.449.1.3 (antibody, V domains shown, Variable regions only) VH: QVQLVESGGGLVKPGGSLRLSCAASGFTFSDYYMNWIRQAPGKGLEWVSYISSSGSIIYYADSVKGRFTISRDNAKNSLYLQMNSLRAEDTAVYYCAREGRIAARGMDVWGQGTTVTVSS VL: DIQMTQSPSSLSASVGDRVSITCRPSQSFSRYINWYQQKPGKAPKLLIHAASSLVGGVPSRFSGSGSGTDFTLTISSLQPEDFATYYCQQTYSNPPITFGQGTRLEMK
18 | – | no binding | no binding | no binding | no binding | 2.414.2 (antibody, V domains shown, Variable regions only) VH: QLQLQESGPGLVKPSETLSLTCTVSGGSISSSNYYWGWIRQPPGKGLEWIGTIYYTGSTYYNPSLKSRVTISVDTSKNQFSLKLSSVTAADTAVYYCARHHWVFDYWGQGTLVTVSS VL: EIVLTQSPDFLSVTPKEKVTITCRASQIIGSSLHWYQQKPDQSPKLLIKYASQSFSGVPSRFSGSGSGTDFTLTLNSLEAEDAATYYCHQSTILPWTFGQGTKVEIK
19 | > 100 | – | – | – | – | 2.2002.3 (antibody, V domains shown) VH: QVQLVESGGGVVQPGRSLRVSCAASGFMFRSYGMHWVRQAPGKGLEWVAVIWHDGSNKNHGDSVKGRFTISRDNSKNTLYLQMNSLRAEDTAVYYCARGRLAGGGPYYYYYYGMDVWGQGTTVTVSS VL: not shown
